Experimental data as given in paper PMC5308003.

What follows are sequences tested against T1, 6His-OxyR-Like (Magnetospirillum gryphiswaldense MSR-1) (UniProt V6F1S1) (assay: EMSA). Conditions: EMSA: DIG Gel Shift Kit 2nd Gen (Roche) binding buffer with 1 uL poly[d(I-C)], 20 uL, 25 C 30 min, 5% native PAGE in 0.5x TBE; footprinting: 1000 ng labeled ….
T1 sequence: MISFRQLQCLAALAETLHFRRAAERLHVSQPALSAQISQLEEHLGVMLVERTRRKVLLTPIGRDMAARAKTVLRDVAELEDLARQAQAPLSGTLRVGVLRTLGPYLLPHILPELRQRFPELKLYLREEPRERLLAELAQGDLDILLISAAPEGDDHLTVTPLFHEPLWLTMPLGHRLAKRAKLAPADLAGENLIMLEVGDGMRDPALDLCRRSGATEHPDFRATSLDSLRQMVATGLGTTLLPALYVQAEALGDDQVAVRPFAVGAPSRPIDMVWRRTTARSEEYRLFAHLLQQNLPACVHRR

| Sequence | binding |
| --- | --- |
| CAGGGCAGGATGATGTGAGTGCGTAGACAGATAGGTAAACCAACCTTCCCTTTTAGGCAAGGCGTTTCGCCGTCAAAAATGCTTATATTGCAATGCAATAATGGCAATTAACTGGATAATAGTTATTTATCAAAACCTAACCAGATGGGCGGGCAACGGGTGGTGCGATGCAGCAATCCTTTTGCCTCATCGGGTTAGCGCCTGACAGGGATATTGGGAGCGGGCAAACACTTGAAAACCCACCCGGCGGACAAAATCGCGCCAACCGGTCCATTTCACAATGCACCCATTCAGAGCAAA (double strand) [pdh promoter EMSA probe] | binds |
| CGGCACTTGTTCCATGAACTTCGACCATATCGCTCTCCCATTCAACCAATTGTTAGCCTTGGGCTTGGCGATATTCTAACCGTTCCTCCATTCAACTCATACAGATGTGGTTTAGAAGCTTTTTAATAAATACTTGAGGGTCCGGAAATCATTAGCCGAACCCTCAATAGCCTCAGCTATGCAGGCCGGGGGCTTCATGTCCGGTGCGGGCCACGTATTCGGTGTAGCCGC (double strand) [katG promoter EMSA probe] | no binding |
| CTTGATCCCGATAATCTGCTGATCGTGGTGGTCGGCAAGCCGGAAGGGGTCAACGGCACGCCCTAACCCGAAAAGACGGCGGCGGCAAAAATCAACGCCGCCCAGTGATCCGTTTCTCCCGTGACACCGTAGAAGGGTCATAAGGAGAAACGCGATGCCTCGGATCATCAAGATTGTTGCCGGCGCTTTGGCCACCTGTCTGGCGGCGACGGCCCCGGCCAAGGCCAGTGGTGCTGTCTTGGACT (double strand) [bsaA promoter EMSA probe] | no binding |
| GGGCGAAGAATGGACATCGTCGTCTCCATTAGGCTGTTGTCCGTGATTGAGACTATGCCCCCTTCTTTGTGATAATTCTAATCGATATATCTTGAGATATTGATAGTAAATTGTTATCAGTGATCCATGATCAGCTTTCGCCAATTACAATGCCT (double strand) [oxyR-Like promoter EMSA probe] | binds |
| TGGGCTGTTGCTTGTCTTATCTTTTTTCATTTCCGCCTCACAGGCTGAATTATCTGAAAAGGAAATAGATGAGGATCAGGACTGGGATGGGAACGCCAACCAGCCAGAGAAGGCCGTATTTCATTTCCTACCTCGCTGTTCTGCCGGTGTGTCATGGGGCAATGGAGCCGTCCTGATACAAGA (double strand) [katE promoter EMSA probe] | no binding |
